Test results from publication PMC8501077 (Nature Communications, 2021).

B1: C-terminally 3xFLAG tagged Sei1 (yeast Seipin) (natural protein, S. cerevisiae)
chain: MKINVSRPLQFLQWSSYIVVAFLIQLLIILPLSILIYHDFYLRLLPADSSNVVPLNTFNILNGVQFGTKFFQSIKSIPVGTDLPQTIDNGLSQLIPMRDNMEYKLDLNLQLYCQSKTDHLNLDNLLIDVYRGPGPLLGAPGGSNSKDEKIFHTSRPIVCLALTDSMSPQEIEQLGPSRLDVYDEEWLNTIRIEDKISLESSYETISVFLKTEIAQRNLIIHPESGIKFRMNFEQGLRNLMLRKRFLSYIIGISIFHCIICVLFFITGCTAFIFVRKGQEKSKKHS
notes: Sei1, the yeast Seipin, S. cerevisiae; model built for residues 24-132 and 145-265; also called Sei1-FLAG; WT Sei1; source: S. cerevisiae, plasmid-borne, in detergent extract of crude membranes; not shown: 3xFLAG, C-terminal, kept; copies: 10

Experiments:
[1] = target: FLAG-tagged Sei1∆231-243, locking helix replaced by a flexible linker (S. cerevisiae) (UniProt Q06058); test: cryo-EM structure; single-particle cryo-EM of FLAG-purified protein in DDM/CHS (50 mM Tris.HCl pH7.4, 200 mM NaCl, 1 mM EDTA); C10 symmetry applied
[2] = target: the molecule itself; test: as above

Row | Molecule | stoichiometry N [1] | stoichiometry N [2]
1 | FLAG-tagged Sei1∆231-243, locking helix replaced by a flexible linker (from UniProt Q06058 1-230; Q06058 244-285) (natural protein) | 10 | –
2 | B1 | – | 10
